The source of these data is the supplement of paper PMC10724198.

± gives the standard deviation of the averaged measurements.

The subject of the series is Saccharomyces cerevisiae. In words: protein stability index of tFT-peptide fusion (C-terminal peptide) (PSI (0-1 scale)); higher = more stable (slower turnover). The settings on record: temperature: 30 C. The method, then:
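MPS profiling in S. cerevisiae of the yeast C-terminome library: the last 12 aa of each annotated ORF are fused to the C-terminus of a sfGFP-mCherry timer, after a GGGS linker. Cells are FACS-sorted into 8 mCherry/sfGFP bins and deep-sequenced. PSI runs from 0 (unstable) to 1 (stable); wild type and das1Δ backgrounds, two technical replicates each.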

The mark [1] stands for this setting: genetic background: das1 deletion.

As to TPHNHNQNQHTN [RSF1 C-terminal 12 aa], the protein stability index reads like this: under setting [1], 0.72 ± 0.029; (genetic background: wild type) 0.706 ± 0.03.

On to TPSSVQSSPKRA [ZRG8 C-terminal 12 aa], for which the protein stability index was determined as 0.696 ± 0.017 under setting [1] and 0.668 ± 0.0075 (genetic background: wild type).

In the case of TPTCQDPSLTEV [YJR038C C-terminal 12 aa], the protein stability index reads like this: under setting [1], 0.7253 ± 0.0048; (genetic background: wild type) 0.6895 ± 0.0068.

As to TSLGLTRTTIIP [CDC4 C-terminal 12 aa], the protein stability index runs as follows: under setting [1], 0.685 ± 0.021; (genetic background: wild type) 0.6778 ± 0.0043.

For TSPIGEFQSIKH [SPT21 C-terminal 12 aa], the protein stability index reads like this: under setting [1], 0.731 ± 0.015; (genetic background: wild type) 0.674 ± 0.037.

Regarding TSQEINDRLEAL [PRE8 C-terminal 12 aa], the protein stability index is, setting by setting: under setting [1], 0.666 ± 0.027; (genetic background: wild type) 0.643 ± 0.0082.

Regarding TSSQKIYHTSNK [IPK1 C-terminal 12 aa], the protein stability index reads like this: under setting [1], 0.686 ± 0.05; (genetic background: wild type) 0.672 ± 0.049.

Take TVDYIASNPDAN [ACP1 C-terminal 12 aa]: the protein stability index was 0.696 ± 0.0025 under setting [1] and 0.736 ± 0.038 (genetic background: wild type).

For the sequence TVGIHSPIDEKC [ATG4 C-terminal 12 aa], the protein stability index under setting [1] is 0.699 ± 0.013 and the protein stability index (genetic background: wild type) is 0.669 ± 0.015.

Consider TVVDARIDGRGK [PHB2 C-terminal 12 aa], for which the protein stability index was 0.6724 ± 0.0014 under setting [1] and 0.708 ± 0.045 (genetic background: wild type).

As to TYSEREGNLLNS [RPR2 C-terminal 12 aa], the protein stability index under setting [1] worked out at 0.7159 ± 0.0046 and the protein stability index (genetic background: wild type) came to 0.675 ± 0.0073.

The sequence VASLPSRYSRYD [ALR1 C-terminal 12 aa] registered a protein stability index under setting [1] of 0.711 ± 0.024 and a protein stability index (genetic background: wild type) of 0.654 ± 0.013.

On to VDKLAGVRVLPV [GOT1 C-terminal 12 aa], for which the protein stability index is 0.67 ± 0.01 under setting [1] and 0.704 ± 0.019 (genetic background: wild type).

Regarding VEKKKVLSKITL [VPH2 C-terminal 12 aa], the protein stability index is 0.691 ± 0.033 under setting [1] and 0.691 ± 0.048 (genetic background: wild type).

As to VESTRETGGCNC [YPT53 C-terminal 12 aa], the protein stability index was 0.692 ± 0.027 under setting [1] and 0.65486 ± 0.00056 (genetic background: wild type).

In the case of VFQRAIEKALGE [STR2 C-terminal 12 aa], the protein stability index under setting [1] was found to be 0.707 ± 0.011 and the protein stability index (genetic background: wild type) amounted to 0.716 ± 0.013.

For VFSKKEPFPHSK [YJR084W C-terminal 12 aa], the protein stability index came out at 0.721 ± 0.019 under setting [1] and 0.771 ± 0.059 (genetic background: wild type).

In the case of VGITSVGTRGNY [YNL140C C-terminal 12 aa], the protein stability index runs as follows: under setting [1], 0.674 ± 0.015; (genetic background: wild type) 0.717 ± 0.097.

VGNYFMAIQRLN [COQ3 C-terminal 12 aa] yielded a protein stability index under setting [1] of 0.731 ± 0.025 and a protein stability index (genetic background: wild type) of 0.16 ± 0.017.

Consider VIASDESSHLSY [YHR127W C-terminal 12 aa], for which the protein stability index turned out to be 0.709 ± 0.017 under setting [1] and 0.699 ± 0.024 (genetic background: wild type).

For VKDLYKRLTIQA [GPI1 C-terminal 12 aa], the protein stability index by setting is: under setting [1], 0.518 ± 0.018; (genetic background: wild type) 0.0975 ± 0.0091.

Sequence VKHAEYAINAFF [YPR147C C-terminal 12 aa] had a protein stability index under setting [1] of 0.709 ± 0.018 and a protein stability index (genetic background: wild type) of 0.682 ± 0.026.

Take VKHQPKTYRTKK [SGO1 C-terminal 12 aa]: the protein stability index by setting is: under setting [1], 0.676 ± 0.015; (genetic background: wild type) 0.677 ± 0.053.

Consider VKRNKYPPRPVH [REF2 C-terminal 12 aa], for which the protein stability index stood at 0.704 ± 0.023 under setting [1] and 0.74 ± 0.0081 (genetic background: wild type).

VKSDSGSSCTIM [RHO3 C-terminal 12 aa]: the protein stability index is 0.721 ± 0.011 under setting [1] and 0.711 ± 0.023 (genetic background: wild type).

With VKTKFFPLSSSI [YDR199W C-terminal 12 aa], the protein stability index reads like this: under setting [1], 0.738 ± 0.02; (genetic background: wild type) 0.716 ± 0.026.

“VKWKVLCDLGWT [YIL047C-A C-terminal 12 aa]”: the protein stability index amounted to 0.715 ± 0.023 under setting [1] and 0.708 ± 0.028 (genetic background: wild type).

Take VKYSRIIPPDIR [SUM1 C-terminal 12 aa]: the protein stability index worked out at 0.72 ± 0.017 under setting [1] and 0.69 ± 0.032 (genetic background: wild type).

For VLDEEFRNNNAS [RAD26 C-terminal 12 aa], the protein stability index is, setting by setting: under setting [1], 0.716 ± 0.0098; (genetic background: wild type) 0.69 ± 0.038.

Consider VLELSLGFTKLD [MON2 C-terminal 12 aa], for which the protein stability index was found to be 0.7141 ± 0.0071 under setting [1] and 0.707 ± 0.041 (genetic background: wild type).

Consider VLFLEDNGFFVF [MET3 C-terminal 12 aa], for which the protein stability index turned out to be 0.765 ± 0.024 under setting [1] and 0.775 ± 0.037 (genetic background: wild type).

VLIKHDHTNTHI [MMT1 C-terminal 12 aa]: the protein stability index was found to be 0.703 ± 0.028 under setting [1] and 0.701 ± 0.034 (genetic background: wild type).

Consider VMEEEEQDCKCI [POP8 C-terminal 12 aa], for which the protein stability index was 0.6923 ± 0.00099 under setting [1] and 0.6519 ± 0.0055 (genetic background: wild type).

For the sequence VMGQFLPIFEMD [GSM1 C-terminal 12 aa], the protein stability index was determined as 0.724 ± 0.031 under setting [1] and 0.713 ± 0.0046 (genetic background: wild type).

Regarding VRILTKYPKILV [RIM101 C-terminal 12 aa], the protein stability index runs as follows: under setting [1], 0.488 ± 0.021; (genetic background: wild type) 0.5 ± 0.0066.

For VSGKKFQNVRVL [YPL247C C-terminal 12 aa], the protein stability index runs as follows: under setting [1], 0.705 ± 0.01; (genetic background: wild type) 0.676 ± 0.04.

As for VSLDNLPGVEKK [SUA7 C-terminal 12 aa], the protein stability index stood at 0.682 ± 0.022 under setting [1] and 0.683 ± 0.014 (genetic background: wild type).

For the sequence VSLLLNSLALFF [YGL204C C-terminal 12 aa], the protein stability index runs as follows: under setting [1], 0.688 ± 0.021; (genetic background: wild type) 0.6623 ± 0.0058.

With VSNLEVLEELFP [DPI35 C-terminal 12 aa], the protein stability index came out at 0.722 ± 0.015 under setting [1] and 0.7123 ± 0.0038 (genetic background: wild type).

As to VTEAESTASAST [BUD20 C-terminal 12 aa], the protein stability index reads like this: under setting [1], 0.7 ± 0.013; (genetic background: wild type) 0.6926 ± 0.006.

For the sequence VVEKVSSITNRN [SRF1 C-terminal 12 aa], the protein stability index is, setting by setting: under setting [1], 0.6869 ± 0.0056; (genetic background: wild type) 0.669 ± 0.065.

Regarding VVPAVLFAFLLV [YDL118W C-terminal 12 aa], the protein stability index by setting is: under setting [1], 0.446 ± 0.0098; (genetic background: wild type) 0.4 ± 0.0053.

Take VYENNSYPNSHT [RTT105 C-terminal 12 aa]: the protein stability index is, setting by setting: under setting [1], 0.6964 ± 0.0011; (genetic background: wild type) 0.678 ± 0.023.

The sequence WDKQKALERRSV [CNS1 C-terminal 12 aa] returned a protein stability index under setting [1] of 0.723 ± 0.015 and a protein stability index (genetic background: wild type) of 0.705 ± 0.024.

Regarding WGSIGQKLRRSA [YOL118C C-terminal 12 aa], the protein stability index turned out to be 0.704 ± 0.012 under setting [1] and 0.728 ± 0.015 (genetic background: wild type).

In the case of WLRKWLSTFVHQ [YNL018C C-terminal 12 aa], the protein stability index was 0.732 ± 0.042 under setting [1] and 0.23 ± 0.022 (genetic background: wild type).

For WRRSKSISTHLR [YLR366W C-terminal 12 aa], the protein stability index runs as follows: under setting [1], 0.711 ± 0.0074; (genetic background: wild type) 0.681 ± 0.034.

WSPLHAAKRHRI [MRPL51 C-terminal 12 aa]: the protein stability index stood at 0.692 ± 0.014 under setting [1] and 0.695 ± 0.02 (genetic background: wild type).

As for YAGHRFHDGNKL [ERR1 C-terminal 12 aa], the protein stability index under setting [1] was 0.726 ± 0.009 and the protein stability index (genetic background: wild type) was 0.737 ± 0.043.

YAINSGARFDLS [HUL5 C-terminal 12 aa]: the protein stability index is 0.713 ± 0.025 under setting [1] and 0.687 ± 0.0069 (genetic background: wild type).

As to YANAPIEEKPLI [PUN1 C-terminal 12 aa], the protein stability index was determined as 0.702 ± 0.018 under setting [1] and 0.683 ± 0.017 (genetic background: wild type).

For the sequence YDYLINNKTIFD [POF1 C-terminal 12 aa], the protein stability index runs as follows: under setting [1], 0.722 ± 0.022; (genetic background: wild type) 0.736 ± 0.022.

Take YEEGESIFGSLF [REV7 C-terminal 12 aa]: the protein stability index runs as follows: under setting [1], 0.71 ± 0.029; (genetic background: wild type) 0.7145 ± 0.0024.

Take YENEEIQRKRCI [YOR364W C-terminal 12 aa]: the protein stability index reads like this: under setting [1], 0.696 ± 0.017; (genetic background: wild type) 0.658 ± 0.0062.

With YFSSNISMKTEN [REB1 C-terminal 12 aa], the protein stability index stood at 0.7171 ± 0.0057 under setting [1] and 0.7373 ± 0.0014 (genetic background: wild type).

For YIKKSAKKGDKN [YHR140W C-terminal 12 aa], the protein stability index under setting [1] came out at 0.676 ± 0.032 and the protein stability index (genetic background: wild type) came to 0.65 ± 0.016.

For the sequence YKAVSVSANSPE [SOG2 C-terminal 12 aa], the protein stability index under setting [1] is 0.689 ± 0.016 and the protein stability index (genetic background: wild type) stood at 0.673 ± 0.032.

For YKNNWLILQQQD [KSP1 C-terminal 12 aa], the protein stability index was 0.694 ± 0.066 under setting [1] and 0.703 ± 0.082 (genetic background: wild type).

As to YNGGGKKLDGFW [YSP3 C-terminal 12 aa], the protein stability index was 0.7015 ± 0.0059 under setting [1] and 0.691 ± 0.025 (genetic background: wild type).

As to YNKICSLASRVI [MRPL38 C-terminal 12 aa], the protein stability index worked out at 0.669 ± 0.0074 under setting [1] and 0.673 ± 0.017 (genetic background: wild type).

As to YPVDKEGDIVLE [THP2 C-terminal 12 aa], the protein stability index under setting [1] worked out at 0.679 ± 0.0084 and the protein stability index (genetic background: wild type) amounted to 0.662 ± 0.039.

In the case of YQCSETSTPRNT [GIC1 C-terminal 12 aa], the protein stability index by setting is: under setting [1], 0.723 ± 0.025; (genetic background: wild type) 0.675 ± 0.012.

For the sequence YRIIDCVIAQLP [NVJ3 C-terminal 12 aa], the protein stability index is, setting by setting: under setting [1], 0.669 ± 0.045; (genetic background: wild type) 0.655 ± 0.046.

In the case of YSDGRNYKESSI [CSS3 C-terminal 12 aa], the protein stability index came to 0.69 ± 0.037 under setting [1] and 0.656 ± 0.045 (genetic background: wild type).

The sequence YSILWSDVYPDS [PDR1 C-terminal 12 aa] registered a protein stability index under setting [1] of 0.7408 ± 0.0068 and a protein stability index (genetic background: wild type) of 0.754 ± 0.013.

On to YTINYETNTVEY [NUP133 C-terminal 12 aa], for which the protein stability index was 0.641 ± 0.024 under setting [1] and 0.6455 ± 0.0026 (genetic background: wild type).

With YVKEAQSVVTSL [YIR043C C-terminal 12 aa], the protein stability index reads like this: under setting [1], 0.672 ± 0.013; (genetic background: wild type) 0.659 ± 0.029.
